In article PMC6451128, “Structural and functional analysis of the nucleotide and DNA binding activities of the human PIF1 helicase”:

Columns and labels:
Conditions in all cases: protein: recombinant; tags: His tag removed, GSRM left; label: 5' 32P (PNK)
[1] = target: T1, hPIF1HD N486A (human, UniProt Q9H611 206-620, N486A); assay: EMSA; no nucleotide; 20 mM HEPES-NaOH pH 7.5 (Results say pH 7.2), 135 mM NaCl, 5% glycerol, 1 mM DTT, 1 mg/ml BSA, 20 min at 20 C; 0.4 nM T(35); G4 assay: 0.1 nM G4 DNA, 2% PEG 8000 instead of glycerol, 5 uM T(35) competitor
T1 sequence: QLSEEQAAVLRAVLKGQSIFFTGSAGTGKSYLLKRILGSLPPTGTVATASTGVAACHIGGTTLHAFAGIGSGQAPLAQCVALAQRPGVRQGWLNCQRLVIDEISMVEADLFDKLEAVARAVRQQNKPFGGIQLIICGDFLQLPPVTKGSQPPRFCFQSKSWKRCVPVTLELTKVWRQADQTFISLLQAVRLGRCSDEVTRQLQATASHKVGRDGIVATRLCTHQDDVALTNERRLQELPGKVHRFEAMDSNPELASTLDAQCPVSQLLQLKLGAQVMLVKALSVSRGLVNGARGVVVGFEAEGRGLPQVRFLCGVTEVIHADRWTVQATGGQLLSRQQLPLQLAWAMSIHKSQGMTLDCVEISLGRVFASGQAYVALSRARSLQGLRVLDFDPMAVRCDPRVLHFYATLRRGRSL

[2] = target: T2, hPIF1HD K414A (human, UniProt Q9H611 206-620, K414A); assay: EMSA; no nucleotide; apparent; 20 mM HEPES-NaOH pH 7.5 (Results say pH 7.2), 135 mM NaCl, 5% glycerol, 1 mM DTT, 1 mg/ml BSA, 20 min at 20 C; 0.4 nM T(35); G4 assay: 0.1 nM G4 DNA, 2% PEG 8000 instead of glycerol, 5 uM T(35) competitor
T2 sequence: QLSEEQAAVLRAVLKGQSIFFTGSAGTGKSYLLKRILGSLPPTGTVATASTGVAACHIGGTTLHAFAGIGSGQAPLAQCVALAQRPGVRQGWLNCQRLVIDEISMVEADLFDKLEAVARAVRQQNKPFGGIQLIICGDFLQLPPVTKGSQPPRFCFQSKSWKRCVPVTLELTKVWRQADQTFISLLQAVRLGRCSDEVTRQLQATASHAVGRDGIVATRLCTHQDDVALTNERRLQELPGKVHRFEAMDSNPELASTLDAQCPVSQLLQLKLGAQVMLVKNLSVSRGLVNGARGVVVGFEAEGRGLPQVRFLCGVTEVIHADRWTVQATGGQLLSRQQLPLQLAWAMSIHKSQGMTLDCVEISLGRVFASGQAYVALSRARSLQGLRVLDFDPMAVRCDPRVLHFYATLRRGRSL

[3] = target: T3, hPIF1HD E307Q (human, UniProt Q9H611 206-620, E307Q); assay: as above
T3 sequence: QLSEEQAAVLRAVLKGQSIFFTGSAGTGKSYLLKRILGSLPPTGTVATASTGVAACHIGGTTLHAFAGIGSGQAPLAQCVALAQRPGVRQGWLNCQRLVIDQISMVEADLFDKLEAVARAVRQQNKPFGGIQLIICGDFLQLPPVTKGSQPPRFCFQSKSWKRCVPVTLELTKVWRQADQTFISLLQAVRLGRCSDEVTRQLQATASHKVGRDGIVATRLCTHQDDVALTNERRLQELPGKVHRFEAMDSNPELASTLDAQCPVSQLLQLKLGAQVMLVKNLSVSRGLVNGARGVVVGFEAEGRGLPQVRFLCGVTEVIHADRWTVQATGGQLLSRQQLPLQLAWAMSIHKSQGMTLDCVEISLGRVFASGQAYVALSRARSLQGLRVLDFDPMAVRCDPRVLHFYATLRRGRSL

[4] = target: T4, hPIF1HD R294A (human, UniProt Q9H611 206-620, R294A); assay: as above
T4 sequence: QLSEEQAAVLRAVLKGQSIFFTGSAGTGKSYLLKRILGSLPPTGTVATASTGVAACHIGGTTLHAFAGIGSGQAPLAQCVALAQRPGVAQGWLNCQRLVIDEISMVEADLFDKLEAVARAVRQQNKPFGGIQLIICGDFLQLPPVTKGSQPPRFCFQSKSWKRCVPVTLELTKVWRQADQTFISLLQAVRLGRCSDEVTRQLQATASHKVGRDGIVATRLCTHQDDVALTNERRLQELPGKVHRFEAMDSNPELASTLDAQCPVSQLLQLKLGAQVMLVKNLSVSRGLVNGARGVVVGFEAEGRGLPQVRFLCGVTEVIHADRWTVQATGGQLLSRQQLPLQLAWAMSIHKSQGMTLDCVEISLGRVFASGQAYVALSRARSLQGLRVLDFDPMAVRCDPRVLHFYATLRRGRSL

## TTTTTTTTTTTTTTTTTTTTTTTTTTTTTTTTTTT (ssDNA) [poly-T(35)]
[1]
  binding signal: > 50 fold decrease in affinity vs WT
[2]
  Kd: 1.6 ± 0.4 nM
[3]
  Kd: 3.6 ± 0.5 nM
[4]
  Kd: 5.7 ± 1.6 nM
